Bounds are passed on as bounds.

Here are results for one substance from patent publication US20140178390A1.

Test [1] has as its target Human CXCR7 (human) (UniProt P25106). Description: [125I]-CXCL12 displacement on NIH3T3-hCXCR7 cells.
Test [2] has the same target. Description: competition FACS with 4 nM biotinylated SDF-1 on HEK-hCXCR7 cells.
For test [3] the target is unchanged. Description: [125I]-CXCL12 displacement on NIH3T3-hCXCR7 cells, relative to cold SDF-1.
For test [4] the target is unchanged. Description: cell-based or functional assay.

Human CXCR7 (human), sequence (P25106 whole entry): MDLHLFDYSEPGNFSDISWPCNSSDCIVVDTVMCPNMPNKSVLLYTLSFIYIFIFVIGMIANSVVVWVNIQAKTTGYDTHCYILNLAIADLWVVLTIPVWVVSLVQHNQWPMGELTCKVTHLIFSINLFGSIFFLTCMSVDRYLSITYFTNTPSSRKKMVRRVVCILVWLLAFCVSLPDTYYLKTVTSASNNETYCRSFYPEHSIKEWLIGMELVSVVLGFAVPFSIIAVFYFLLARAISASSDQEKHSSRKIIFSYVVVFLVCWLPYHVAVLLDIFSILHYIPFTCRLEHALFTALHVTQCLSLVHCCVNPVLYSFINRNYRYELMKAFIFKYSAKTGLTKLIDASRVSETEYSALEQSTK

In the test with Human CXCR7 (human) [1], Mab 8F11 (Biolegend) (antibody) yielded a Ki of 5.9 nM. Moreover, in the test with Human CXCR7 (human) [2], the competition relative to unlabelled SDF-1 (%) is more than 95%. Besides, the Average SDF-1 displacement (%) with Human CXCR7 (human) [3] came to 73%. Moreover, in the test with Human CXCR7 (human) [4], the β-arrestin recruitment in absence of HSA [IC50] is 12.9 and the β-arrestin recruitment in presence of HSA [IC50] is 34.8.

In general, Ki refers to the dissociation constant of the complex between target and ligand, obtained from inhibition or displacement. Read a low Ki as higher affinity.
